Measured values published in the supplement of paper PMC9170038.

Experiments:
[1] = tested on: MS2 coat protein; test: apparent KD of MS2 coat protein, switch ON state; designed switch direction (-1 OFF switch, 1 ON switch): 1; higher = weaker reporter binding; conditions: FMN input: 0 or 200 uM; Eterna round: R93 (includes R88 designs)
Method in brief: (§1)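 Each design's apparent KD comes from the median of binding-curve fits to its normalised clusters. Those clusters carried RNA switches transcribed on-chip from Illumina sequencing clusters. SNAP-549-labelled MS2 coat protein was titrated onto them in twofold steps (0.7 or 1.5 nM to 3 µM; per step 0.8–1.5 h down to 10–20 min). Conditions were 100 mM Tris-HCl pH 7.5, 80 mM KCl, 4 mM MgCl2, without or with constant ligand.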

[2] = tested on: MS2 coat protein; test: apparent KD of MS2 coat protein, switch OFF state (with FMN for OFF switches, without FMN for ON switches); designed switch direction (-1 OFF switch, 1 ON switch): 1; higher = weaker reporter binding; conditions: FMN input: 0 or 200 uM; Eterna round: R93 (includes R88 designs)
Method in brief: as §1

Row | Sequence | apparent KD of MS2 coat protein [1] [nM] | apparent KD of MS2 coat protein [2] [nM]
1 | AAAAUAUAAACAGAGGAUAUCCAAAGAACCACAUGAGGAUCACCCAUGUAAAGAAAGAAUAAGUGGGAGAAGGUUGAAAUAAUAA [Designing denovo 26] | 49.9 | 74.9
2 | AAACAAACAACGCAGGAUAUGCAAAAACCCACAUGAGGAUCACCCAUGUCCCAACAACAAACAAAGCAGAAGGGCGAACAAACAAA [High Roller1] | 37.3 | 86.8
3 | AAACAGAUAGGACAGGAUAUGUCGUGAUAAACAUGAGGAUCACCCAUGUGAGACAUCACGUAAUCGCAGAAGGGUCCUGUCUUAC [Aquditiri] | 16.3 | 15.6
4 | AAACCACAUGAGGAUCACCCAUGUGAAAAAAACAUAGGAUAUGGAAACACGAAAGUGAAACCAGAAGGGUGAAAAA [77%, Mat - Mod of Eli, 27] | 24.3 | 23.8
5 | AAACCACAUGAGGAUCACCCAUGUGAAAUACAUACAGGAUAUGCGAAAAGAAACAAAGAAGCAGAAGGGUGAAAAA [75%, Ex sub1, 18] | 15.9 | 25.4
6 | AAAGACAUAGUUCAGGAUAUGGUAAUAGUCACAUGAGGAUCACCCAUGUGCAUUUAUAUGCGCGAUCAGAAGGGAGGUAGAUAUA [SameState2 Malc#18] | 18.8 | 17.7
7 | AAAUAAAGGACUGAGGAUAUACCACAUGAAACAUGAGGAUCACCCAUGUAGAAAUACAAAGGGUGGUAGAAGGCAGUCCACAAAC [Same State 2.5g ( so lets mod hyphema)] | 15 | 25.5
8 | AAAUAAAGGACUGAGGAUAUACCACAUGAAACAUGAGGAUCACCCAUGUAGAAAUACAAAGGGUGGUAGAAGGUAGUCCACAAAC [Same State 2.5 so lets mod hyphema)] | 45.9 | 68.9
9 | AAAUAAAUGACUAAGGAUAUAUCAAAGAAAACAUGAGGAUCACCCAUGUAAUAAUAAAAAGGGUGAUAGAAGGUAGUCAACAAAC [74%, More Paria 4] | 23.7 | 221
10 | AAAUAAAUGACUAAGGAUAUUUCAGAGAAAACAUGAGGAUCACCCAUGUAAUAAUAAAAAGGGUGAAAGAAGGUAGUCAACAAAC [74%, More Paria 4] | 17.1 | 41
11 | AAAUAAAUGACUGAGGAUAUAUCGAUGAAAACAUGAGGAUCACCCAUGUGAUAAUAAAAAGGGUGGUAGAAGGUAGUCAACAAAC [Mod 12 of Pariah 4 by Hyphema in Round 1] | 55.5 | 207
12 | AACAAUCUAUCUGAGGAUAUCAUGUCAAAGACAUGAGGAUCACCCAUGUCCAGGAAAACUGGUCAUGAGAAGGCAGAUAGAUUGA [SS2: 1111] | 51.3 | 887
13 | AACAAUCUAUCUGAGGAUAUGUGUCGAAAGACAUGAGGAUCACCCAUGUAAAAACAUGAAAAAACACAGAAGGCAGAUAGAUUGA [SS2: 1146] | 62.6 | 81.5
14 | AACAAUCUAUCUGAGGAUAUGUGUCGAAAGACAUGAGGAUCACCCAUGUGAAAACAUGAAAAAACACAGAAGGCAGAUAGAUUGA [SS2: 1147] | 33.6 | 70.6
15 | AAGAAACAUGAGGAUCACCCAUGUAAAAAUAUGGGAGGAUAUGCGAAAAGAAACAAAGAAGCAGAAGGCCUAAGAA [75%, Ex5 sub 1, 6] | 15.9 | 51.1
16 | AAGAAACAUGAGGAUCACCCAUGUAAAUAAAACACAGGAUAUCGAAUAUGGGAGAUUUAACGAGAAGGGUGAAGAA [Meechl MS2 SS1 3] | 36 | 87.7
17 | AAGAAACAUGAGGAUCACCCAUGUAAGAUAAACACAGGAUAUGCGAAAAGAAAUAAAGAAGCAGAAGGGUGAAGAA [Mat - Same State 1 - Tesla mod - 63] | 21.7 | 54.3
18 | AAGAAACAUGAGGAUCACCCAUGUAAGAUAAACACAGGAUAUGCGAAAGAAACAAAGAAAGCAGAAGGGUGAAGAA [Mat - Same State 1 - Tesla mod - 48] | 9.76 | 26.8
19 | AAGAAACAUGAGGAUCACCCAUGUAAGAUAAACACAGGAUAUGCGAAAUAAAUAAAUAAAGCAGAAGGGUGAAGAA [Mat - Same State 1 - Tesla mod - D149] | 6.88 | 19.4

Row | Sequence | apparent KD of MS2 coat protein [1] [nM] | apparent KD of MS2 coat protein [2] [nM]
20 | AAGAAACAUGAGGAUCACCCAUGUACCCAAAAGGGAGGAUAUCCGAAAGAAAGAAAGAAAGGAGAAGGCCCAUGAA [Xerxes II] | 12.6 | 34.2
21 | AAGAAACAUGAGGAUCACCCAUGUAGAAACAUGGGAGGAUAUACGAAGACGAAAGUCAAAGUAGAAGGCCUAAAAA [Garnet 90] | 78.8 | 198
22 | AAGAAACAUGAGGAUCACCCAUGUAGAAAUAUGGGAGGAUAUACGAGGACGAAAGUCAAAGUAGAAGGCCUAAGAA [Mat - Same State 1 - Meechl mod - D130] | 19.6 | 66.9
23 | AAGAAACAUGAGGAUCACCCAUGUGAAAGAAACACAGGAUAUGCGAAAAGAAACAAAGAAGCAGAAGGGUGAAGAA [Mat - Same State 1 - Tesla mod - 58] | 22.6 | 39.2
24 | AAGGAACAUGAGGAUCACCCAUGUAAAAAAUAUGGAGGAUAUACUAGAAGAAACAAAAUAGUAGAAGGCCAAAAAA [75%, Ex sub1, 30] | 16.5 | 20.6
25 | AAUACACAUAGUCAGGAUAUCAAAAAUAAGACAUGAGGAUCACCCAUGUAAUAAGUAAAAGUAAAUGAGAAGGGACAGGGUGAAA [JR_SS002_Sub402] | 33 | 79.3
26 | AAUAUACAUGAGGAUCACCCAUGUUAGGUGGGUCAAGGAUAUCAAAAUAAAUAAAGAACAUGAGAAGGUGAAUAAA [JR_SS001_Sub018] | 207 | 161
27 | AAUAUAUUAAGUGAGGAUAUCAUAGGAAAAACAUGAGGAUCACCCAUGUGGGAAACCUGGUCGGGUGAGAAGGCACUUAAUAUAU [Samwise Clockwise 30 - Jieux - Same State 2] | 37.5 | 217
28 | AAUAUAUUAAGUGAGGAUAUCGAGGAAAAAACAUGAGGAUCACCCAUGUGGGUAAAAAAAAAAAGUGAGAAGGUGCUUAAUAUAU [Samwise Clockwise 10 - Jieux - Same State 2] | 32.3 | 128
29 | AAUGAACAUGAGGAUCACCCAUGUUCUAAUAGUUGAGGAUAUAUGGGUGAAAAUAGCACGGUAGAAGGCGAGUGUA [SameState1 Malc#18] | 249 | 104
30 | ACUAUACAUGAGGAUCACCCAUGUCAGGUGGGACUAGGAUAUCAUAAGCCAGAGUAAGAAUGAGAAGGAGUAGAAA [JR_SS001_Sub306] | 143 | 151
31 | AGAAAACAUGAGGAUCACCCAUGUCAGAAAUGGCAAGGAUAUAGAAAAGAAAAAGAAAAACUAGAAGGUGCAAAAG [Meechl SS1 R2 m2] | 187 | 153
32 | AGAAAUAAAAGAGAGGAUAUCCAAAAGAAAACAUGAGGAUCACCCAUGUGAAACAAAACAAAAUGGGAGAAGGCUCAAAAUAAGA [Topaz 16] | 31 | 137
33 | AGAAAUAAAAGAGAGGAUAUCCAAAAUAAAACAUGAGGAUCACCCAUGUCUACGAAAGUAGGAUGGGAGAAGGCUCAAAAUAAAG [80% More Helter Skelter 2 + Hairpin] | 120 | 14.8
34 | AGAAAUAAAAGAGAGGAUAUCCAAAAUAAAACAUGAGGAUCACCCAUGUGAAACAAAACAAAAUGGGAGAAGGCUCAAAAUAAGA [Topaz 17] | 15.7 | 33.9
35 | AGAAAUAAAAGCUAGGAUAUCCAAAAGAAAACAUGAGGAUCACCCAUGUAAAAGAAAAUAAAGUGGGAGAAGGAGCAAAAUAAGA [Starry modified] | 18 | 35.6
36 | AGAAAUAAAAGGCAGGAUAUCCAAAAGAAAACAUGAGGAUCACCCAUGUAAAAGAAAAUAAAAUGGGAGAAGGGCCAAAAUAAAG [Fisker 73] | 13.1 | 42.3
37 | AGAAUAAAAAGACAGGAUAUCCAAAAGAAAACAUGAGGAUCACCCAUGUAAAAAAAAAUAAAAUGGGAGAAGGGUCAAAAUAAAG [Mat - Same State 2 - JL mod - D69] | 18 | 44
